Measured values as given in article PMC5840397 (2018).

Biological target: T1, C-terminally His-tagged human ECRG4(32–148) (human, UniProt Q9H1Z8 32-148)
T1 chain: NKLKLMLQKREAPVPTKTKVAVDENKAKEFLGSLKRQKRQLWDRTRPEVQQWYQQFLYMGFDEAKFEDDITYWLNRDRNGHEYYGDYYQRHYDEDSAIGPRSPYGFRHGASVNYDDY
Assay: SPR

B1: 2 × CTLD–Fc (two human LOX-1 CTLDs in tandem, Fc-fused) (Fc fusion)
chain: not shown
Which Kd does the source give for B1 here?
The Kd was 14.2 nM.
